Among the data in PMC6764996 are fold increase in large > 1000 Å multimers with ssDNA against without ssDNA, percent of Polθ as large (> 1000 Å) multimers (without ssDNA) and percent of Polθ as tetramers or larger (with ssDNA) values, retold here.

In experiment [1] the target is full-length human DNA polymerase θ (Polθ) (human) (UniProt O75417). Briefly: negative staining electron microscopy (single particles); 200 nM protein pre-incubated with 2 μM 26 nt ssDNA; 25 mM Tris-HCl pH 8.8, 1 mM DTT, 10 mM MgCl2, 2 mM ATP; 37 °C, 30 min; 2% uranyl acetate.
For experiment [2] the target is unchanged. Briefly: negative staining electron microscopy (single particles); 200 nM protein without ssDNA; 25 mM Tris-HCl pH 8.8, 1 mM DTT, 10 mM MgCl2, 2 mM ATP; 37 °C, 30 min; applied to lacey carbon grids, 2% uranyl acetate.
Experiment [3] shares this target. The experiment can be described thus: scanning force microscopy (volume measurements); 10 nM protein with 20 nM 26 nt ssDNA; 25 mM Tris-HCl pH 8.8, 30 mM NaCl, 10 mM MgCl2, 2 mM ATP, 0.01% NP-40, 1 mM DTT; 37 °C, 30 min; deposited on mica; volumes normalised to the monomer's volume.

Consider “full-length human DNA polymerase θ (Polθ), O75417 1-2590”, for which the fold increase in large > 1000 Å multimers with ssDNA against without ssDNA in experiment [1] came to 9 fold. In experiment [2], the percent of Polθ as large (> 1000 Å) multimers (without ssDNA) worked out at 3%. The substance also had a percent of Polθ as tetramers or larger (with ssDNA) in experiment [3] of 62%.
